Here are results for 1 substance from US5981229.

The assay concerns the target PlpA-PhoA fusion protein of strain SPRU98 (Streptococcus pneumoniae; E. coli).

DsbA (from UniProt P0AEG4) (enzyme) returned an alkaline phosphatase activity of SPRU98 whole bacteria (activity units per mg of total protein) of 138.
